From the supplement of paper PMC9170038

Tested on: K4 kissing-loop RNA reporter
Assay: apparent KD of K4 kissing-loop reporter; higher = weaker reporter binding
Settings: Eterna round: R107
Description: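 RNA-MaP round R107: designed RNA switches with theophylline, tryptophan, arginine or FMN aptamers are transcribed on-chip within common flanks. They are titrated with a labelled K4 kissing-loop RNA reporter in RNA-MaP buffer (100 mM Tris pH 7.5, 80 mM KCl, 4 mM MgCl2), without ligand or with the indicated ligand. Median apparent KD per design.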

[1] = input ligand: theophylline 20 uM
[2] = input ligand: tryptophan 2.4 mM
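Further: bound reporter read as fluorescence of individual clusters on recovered sequencing chips by microscopy, with normalized cluster intensities fitted with a binding model.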

| Sequence | apparent KD of K4 kissing-loop reporter (input ligand: FMN 200 uM) | apparent KD of K4 kissing-loop reporter (input ligand: arginine 13.2 mM) | apparent KD of K4 kissing-loop reporter (input ligand: none) | apparent KD of K4 kissing-loop reporter [1] | apparent KD of K4 kissing-loop reporter [2] |
| --- | --- | --- | --- | --- | --- |
| GCCUAGUGAUGUUGGGUAAUUUAAACCGGGCGAGGACCGGUACGGCCGCCACUCGGAAACACAACAAAAUUUAAUUUAAUUUAAA [Exclusion - Trytophan A] | 176 nM | 138 nM | 174 nM | 204 nM | 152 nM |
| UGACUGGACUGAAGGAGCGCUGAAGGAGCGUAAGUAGUGAUGUUGCUUACAGGUAGGUCGCAGCAGGUAGGUCGCAGUCUAGUCU | 45.3 nM | 37.1 nM | 56.6 nM | 44.3 nM | 43.7 nM |
| UGAUACCAGACUGAUACCAGCCAGUGAUGUUGGCUAAGCCGAAGAGGUGUCAUAGACACCGGCCCUUGGCAGCAGUCUGGUAUCU [#07 K4 Theophylline B Exclusion] | 120 nM | 110 nM | 120 nM | 108 nM | 117 nM |
| ACCCGUAGGAUACGGAGGUGUAAAUGGGUAUAGGAUAUCUAGAAAUAGAGAAGGAUACCAGUGAUGUUGGUUCCGUAUAUCUUAA | 272 nM | 137 nM | 105 nM | 90 nM | 119 nM |
| CAUGGUGCUCGCCAGUUGUGCGAACGGUGGGAGGAUAUGUCGCGAGACAGAAGGCCCAGUGAUGUUGGGCAGGCUCGUAGAUCGA [Mazadi] | 158 nM | 113 nM | 129 nM | 165 nM | 127 nM |
| AGUUCUUGCCGAAGGAGCGAGGCAGAGUGAUGUUCUGCAAGAGGUCGAAAGACCUCUCUGCCUCAGGUAGGUCGCGGCAUGAACA [Omei KL Arginine B Exc A v3] | 517 nM | 239 nM | 483 nM | 356 nM | 535 nM |
| UCCUGCAAUCGACCACGAAAGUGGAUUGAUACCAGAGUCGAAAGACUCCCUUGGCAGCGAGUGAUGUUCGAAGCAGGUAAAUAAA | 626 nM | 455 nM | 539 nM | 457 nM | 426 nM |
| CUCGAGUGAUGUUCGUUUAUUUAUACAGAUACCAGUGAAUUUUAACACCCUUGGCAGCUGGUUGUAUCUUUGUUUUUUACACAAG [JR_Nu_ExcTheophyA_Sub024] | 191 nM | 297 nM | 211 nM | 338 nM | 154 nM |
| GGAUAGGACAGAGGAUAUCUCUAAAGAGGCAAGAAAACUUGUCUCAGAGAUGACUCAGUGAUGUUGAGAGAAGGCUGUCCUAUCG [FmnBX 7 - #SwitchBubble #StaticStem] | 425 nM | 161 nM | 174 nM | 168 nM | 152 nM |
| AUUUUUUACAGAAGGAGCGUGUUUUUAUAAUCAUUUAUCUUAGCGAGUGAUGUUCGCUUUACACAGGUAGGUCGCUGUUUAUUUA [JR_Nu_ExcArginiB_Sub028] | 119 nM | 130 nM | 121 nM | 121 nM | 85.7 nM |
| UUUCGGUUCUGAGGAUAUUCGGACAAAUAUAGUGAUGUUGUAUAAGGAGGAGGGUGUUGGCAGUGAGGAGAAGGCAGAAGAGGAU [ExFMNB.T] | 1000 nM | 677 nM | 946 nM | 524 nM | 622 nM |
| GCUCAGGAGUGAUGUUCCAAGUGAUGUUAACGAGGACCGGUACGGCCGCCACUCGAUACGGCCGGACCGUAAGAUAAACUAGAGC [Same State - Tryptophan A (Freestyle 8)] | 196 nM | 216 nM | 188 nM | 380 nM | 199 nM |
| GGGAGUAGUGCGGCCGCCACUGAGAAAGAAGAAGAUUGUAGUGAUGUUAUGGAGGAAAGGAAGAACAGGACCGGGCAUUAGAUUU [SSTRyptB.I] | 1080 nM | 735 nM | 231 nM | 651 nM | 684 nM |
| AGGUAUGUCUGAAGGAGCGACUAAGAAGCAGUGAUGUUGCUAAGUAGUAAGUAGCUACGUAGUCAGGUAGGUCGCAGAUAUACCU [Arg B SS t14] | 322 nM | 348 nM | 257 nM | 349 nM | 189 nM |
| UGUCAUUGGUCGGCCGCCACUAGACGGACAUAAAGUCUGUCAUAAAGAGUGAUGUUCUUAAAUAAUAGGACCGGGACCGAUGACU [TrypBS 29 #SwitchBubble #StaticStem] | 440 nM | 382 nM | 872 nM | 611 nM | 218 nM |
| UGUGUUGUUUUGAUGUUUGUUGUAAGGUGGCAGGAUAUCGUAGAGGCGAGAAGGGCUUUUUUGCGUUAUGAGUGAUGUUUGUAGG [exeerzmullin] | 592 nM | 379 nM | 614 nM | 471 nM | 386 nM |
| GCAGCACCGAGUGAUGUUUGGUUCAGCGUGAAGGAUAUAAUAUCUGUUAGAAGGUCAAGUGAGAUUGUCGCGAAUCAGUUUUGAU [theeternabot_exclusion_KL_FMN_A_41] | 368 nM | 248 nM | 309 nM | 332 nM | 290 nM |
| GCAUAGCAGACGUUGAGUGGGAGCCAGGCACGAGGACCGGUACGGCCGCCACUCGACUAGGUUUUCAGUGAUGUUGAAAAUUUAG [Exclusion Tryptophan A GF4] | 151 nM | 141 nM | 142 nM | 140 nM | 156 nM |
| GCAGUGAUGUUGCGGAUGUACAGUGGAGUGCGAGGACCGGUACGGCCGCCACUCGUACAGAACAAGCUAAUACAUCGAUAGGUGA [XI] | 323 nM | 358 nM | 461 nM | 409 nM | 339 nM |
| ACCUUUUUUGCCAGUGAUGUUGGACAGGAAGGAGCGGGCAUAAGCCCAGGUAGGUCGCCUGUCAACUUUCUUAUAGCCCUAAGGU [KL-XArg-A17] | 365 nM | 270 nM | 507 nM | 479 nM | 349 nM |
| AUUGUCGGAGUCUGUGCUGACUGACGAGCAAAGGAUAUGUUAUUAAACAGAAGGUUGUGCUGCUUAAGUGAUGUUUUUGGAGCUA [theeternabot_sameState_KL_FMN_A_26] | 308 nM | 190 nM | 239 nM | 228 nM | 216 nM |
| UGACAUUGCUCAGAUACCAGUCAUGAGGAUCACCCAUGGGCCAAAACGUACUAAAUAAAUGACCCUUGGCAGCUGAGCAAUGUCU [TheoBX 13] | 116 nM | 36.9 nM | 37.7 nM | 165 nM | 72 nM |

| Sequence | apparent KD of K4 kissing-loop reporter (input ligand: FMN 200 uM) | apparent KD of K4 kissing-loop reporter (input ligand: arginine 13.2 mM) | apparent KD of K4 kissing-loop reporter (input ligand: none) | apparent KD of K4 kissing-loop reporter [1] | apparent KD of K4 kissing-loop reporter [2] |
| --- | --- | --- | --- | --- | --- |
| UGGGAUGGGCGAGGAUAUGGUGAUGUUUGGGUUGUUAGUGAUGUUGGUGAUGCUGGUGGUGUUUGUCCAGAAGGCGCGGUUUUUU [Bdazzled 3] | 154 nM | 64.1 nM | 119 nM | 132 nM | 109 nM |
| GUAGGCUACCGAGGAUAUAGUCCAACGGAGUGAUGUUCCGUCUUUCUUCAUCAUUAACGUUGUGAUCUAGAAGGCGGUAGCCUAC | 120 nM | 440 nM | 723 nM | 529 nM | 687 nM |
| UUAGAGAUCUCAGGAUAUCAGUGAUGUUGGUGUGAAGAUCUGAGAUAGAAUUCUAUCUCAGAUCAAUGAGAAGGGAGAUCUCAUU [AK3.1 Exc FMN B] | 385 nM | 162 nM | 209 nM | 181 nM | 168 nM |
| AAUGUACAGGGAAGGAGCGUCGUCCAGUGAUGUUGGAGUUAAAUACCAGUGAUGUUGGUUAGACAGGUAGGUCGCCCUAAAGUGC [Exclusion Arginine B Gf 3] | 104 nM | 80.2 nM | 92 nM | 95 nM | 88 nM |
| AAGUGAUGUUGUAGUGAUGUUGUGAUGUUGCAGGAUAUAUAGUGAUGUAGAAGGGUAUGUUCAGUUUUUUUUUUUGAGUGUUGAU [szxmullin] | 84.3 nM | 35.3 nM | 62.8 nM | 47.6 nM | 66.5 nM |
| UGUCAUUGGUCUGAUACCAGCUGAUCGGAAACGAUCUUGCUGGAGUGAUGUUCCAAGUAAAGCCCUUGGCAGCAGACCGAUGACU [TheoBS 9 #SwitchBubble #StaticStem] | 183 nM | 53.8 nM | 70.6 nM | 107 nM | 144 nM |
| CAAGGGCAAGUCGAUACCAGAGACACAUACCCGCAGUGAUGUUGCAGGAAACAGUUACUUCUCCCUUGGCAGCGAAUGCGACUUC [theeternabot_sameState_KL_Theo_B_45] | 348 nM | 313 nM | 344 nM | 309 nM | 332 nM |
| UGUGUUUACCUGACCCAGUGAUGUUGGGAAGGAGCGUGCGAAAGCACAGGUAGGUCGCUCAACCUAAAGUCAGGUGAGCACUAAA [#SwitchBubble 9 #K4Early] | 407 nM | 277 nM | 447 nM | 470 nM | 328 nM |
| GCGAAGUGAUGUUUCGCCAAUAUUUGAUGAAAGGAUAUCUACUUGAAGAGAAGGUUCAUAUGACUCAAUACCUGACUUGGACCCG [theeternabot_sameState_KL_FMN_A_37] | 86.8 nM | 84.2 nM | 81.4 nM | 82.9 nM | 74.6 nM |
| ACGUAGUUCUAGGAUACCAGCCAAGAUGCCAGGACAAAAGUCCUGGCAGCCAGUGAUGUUGGCCCUUGGCAGCCUAGAACUACGA [Omei KL Theo B Exc B v9] | 149 nM | 115 nM | 132 nM | 121 nM | 120 nM |
| UCGAACGAUGGAAGGAGCGCUCGUCAGCCCUGCGAGUGAUGUUCGUGGGUAAAUAGUCGCGAGCAGGUAGGUCGCCAUCUUGAGC [Zainsotima] | 123 nM | 101 nM | 129 nM | 119 nM | 124 nM |
| UGUCAUUGGUCUGAUACCAGUUGAUAAACUGGAGUGAUGUUCCAAGACGAGAAACUCGACAACCCUUGGCAGCAGACCGAUGACU [TheoBS 16 #SwitchBubble 13 #StaticStem] | 440 nM | 295 nM | 374 nM | 772 nM | 430 nM |
| UGCGGUAGUGAUGUUACCUCAUUAUACUAGCGAGGACCGGUACGGCCGCCACUCGACUUCCUCCACGCCUAGGCCUCUACGUUCA [theeternabot_sameState_KL_Trp_A_36] | 136 nM | 122 nM | 137 nM | 127 nM | 98.2 nM |
| CCUUGGGCACGCCCACUAGGAAGCUAGUCUAAGGAUAUCGACUGGACGAGAAGGUAGACGGACCCGAGUGAUGUUCGGACAUAGG [theeternabot_sameState_KL_FMN_A_1] | 469 nM | 260 nM | 215 nM | 179 nM | 200 nM |
| GCUACCUAUGCAGGAUAUGGUAUUACGAGUGAUGUUCGAGGCAUAUAGAGUGAUGUUCUAUAUCCACCAGAAGGGCAUAGGUAGC | 184 nM | 148 nM | 179 nM | 162 nM | 164 nM |
| GCCGUACGCAUGGAUACCAGCAUCAGAUCUUAGUGAUGUUAAGUCGAGAGUUGGUCAAAAUGCCCUUGGCAGCCAUGCGUACGGC | 128 nM | 90.8 nM | 105 nM | 99.5 nM | 98.2 nM |
| AGGCACGAGCAAGGAUAUUGAGUAGAGUGAUGUUCUGCCUAAGUUGGCUCGUAAGAGCCUUCUUAGCGAGAAGGUGCUCGUGCCU [#2 Same State - FMN A Attempt #27 (HarryS)] | 297 nM | 513 nM | 824 nM | 611 nM | 665 nM |
| AGUAGGAAACUACAAUCCUCUCUUACUGAAGGAGCGCGUGAAAACGCAGGUAGGUCGCAGGAUUGGAGAGUGAUGUUCUCCUUAA [Ex Arginine A K4 17] | 311 nM | 331 nM | 441 nM | 413 nM | 320 nM |
| UGUCGAGUGAUGUUCGAUGUGGUGCAUGCAGAGGAUAUAGGGUGGGCUAGAAGGCUGAAAAGUGCUUCGAGUGAUGUUCGAAGAU [Exclusion FMN A GF9] | 129 nM | 112 nM | 123 nM | 100 nM | 114 nM |
| AUACGUUUUUGUGAUACCAGACAUGUGAGUGAUGUUUACAUAUAUAUUUAAUAUUUAGCUGUCCCUUGGCAGCACUGUUUAUUUA [JR_ExcTheophyB_Sub004] | 362 nM | 382 nM | 420 nM | 437 nM | 301 nM |
| GUAGCCCUAUGUGAUACCAGACGGUAUAAAAUCCUGGCGGCCAGUGAUGUUGGCCAUCGCGUCCCUUGGCAGCACCAAGGCUGUA [theeternabot_sameState_KL_Theo_B_18] | 122 nM | 143 nM | 142 nM | 118 nM | 114 nM |
